This is an account of results in US20090286279.

Data set [1] concerns the target [Leu^1, Thr^2]-63-desulfo-hirudin (Lepirudin (Refludan)) (UniProt P01050).
Data set [2] concerns the target sulfo-hirudin ([Leu^1, Thr^2]-hirudin with sulfotyrosine at position 63, expressed in E. coli from pBAD-HirudinTAG) (UniProt P01050).

With human α-thrombin (Diapharma), the “thrombin activity (cleavage of fluorogenic substrate Boc-Asp(OBzl)-Pro-Arg-MCA, fluorescence intensity over time)” value is “Cleavage of the fluorogenic substrate by thrombin, whose activity is inhibited to different degrees by sulfo-hirudin and desulfo-hirudin” in data set [1]; “Cleavage of the fluorogenic substrate by thrombin, whose activity is inhibited to different degrees by sulfo-hirudin and desulfo-hirudin” in data set [2].
